Data as given in IntAct's records for PubMed 15644435.

Target: ush_drome ush (UniProt Q9VPQ6)
Sequence (Q9VPQ6 whole entry): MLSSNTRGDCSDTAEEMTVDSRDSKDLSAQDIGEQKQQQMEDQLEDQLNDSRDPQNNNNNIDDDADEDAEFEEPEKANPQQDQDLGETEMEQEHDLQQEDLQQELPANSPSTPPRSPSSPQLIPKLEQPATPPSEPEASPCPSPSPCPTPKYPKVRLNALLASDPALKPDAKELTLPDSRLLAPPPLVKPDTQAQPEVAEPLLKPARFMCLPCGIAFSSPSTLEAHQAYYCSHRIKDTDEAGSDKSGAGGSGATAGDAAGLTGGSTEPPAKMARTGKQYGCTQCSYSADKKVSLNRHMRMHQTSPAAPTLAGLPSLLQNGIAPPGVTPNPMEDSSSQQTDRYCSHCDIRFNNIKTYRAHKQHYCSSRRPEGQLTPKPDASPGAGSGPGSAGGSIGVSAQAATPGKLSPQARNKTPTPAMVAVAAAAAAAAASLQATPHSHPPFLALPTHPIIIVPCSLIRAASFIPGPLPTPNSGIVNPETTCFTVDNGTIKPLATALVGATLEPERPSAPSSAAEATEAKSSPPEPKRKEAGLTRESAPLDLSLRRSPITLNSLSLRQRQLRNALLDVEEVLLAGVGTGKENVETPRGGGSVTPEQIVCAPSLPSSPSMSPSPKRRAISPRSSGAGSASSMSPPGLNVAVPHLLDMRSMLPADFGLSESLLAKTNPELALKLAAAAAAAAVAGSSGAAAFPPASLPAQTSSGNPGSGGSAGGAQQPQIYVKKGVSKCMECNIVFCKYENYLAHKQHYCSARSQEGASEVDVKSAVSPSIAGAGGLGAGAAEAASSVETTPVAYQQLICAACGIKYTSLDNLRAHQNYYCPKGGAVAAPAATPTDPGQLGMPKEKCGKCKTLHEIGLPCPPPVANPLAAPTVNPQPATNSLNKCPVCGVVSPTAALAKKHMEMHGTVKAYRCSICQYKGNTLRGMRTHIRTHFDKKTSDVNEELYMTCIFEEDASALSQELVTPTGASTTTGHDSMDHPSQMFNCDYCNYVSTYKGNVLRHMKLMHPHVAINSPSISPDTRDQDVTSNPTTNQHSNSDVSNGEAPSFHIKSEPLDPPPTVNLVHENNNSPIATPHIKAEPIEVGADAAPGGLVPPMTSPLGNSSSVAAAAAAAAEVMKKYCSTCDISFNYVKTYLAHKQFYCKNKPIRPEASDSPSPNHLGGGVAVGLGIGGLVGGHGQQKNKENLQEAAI

Sequence of Erythroid transcription factor (Mus musculus), P17679 D218G (P17679 whole entry D218G): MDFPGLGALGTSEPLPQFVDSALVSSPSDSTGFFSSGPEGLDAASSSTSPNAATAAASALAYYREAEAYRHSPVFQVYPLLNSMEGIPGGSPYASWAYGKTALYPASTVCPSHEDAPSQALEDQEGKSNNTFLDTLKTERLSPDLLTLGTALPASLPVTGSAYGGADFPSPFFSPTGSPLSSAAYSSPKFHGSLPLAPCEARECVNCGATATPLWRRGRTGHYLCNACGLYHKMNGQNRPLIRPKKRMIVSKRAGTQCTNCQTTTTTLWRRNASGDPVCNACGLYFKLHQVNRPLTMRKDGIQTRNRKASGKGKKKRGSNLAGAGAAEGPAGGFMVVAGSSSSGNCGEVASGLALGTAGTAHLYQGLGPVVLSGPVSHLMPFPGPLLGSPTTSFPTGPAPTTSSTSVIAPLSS
Sequence of Erythroid transcription factor (Mus musculus), P17679 R216Q (P17679 whole entry R216Q): as the sequence (P17679 whole entry D218G) above, with R216Q, G218D counted along it
Sequence of Erythroid transcription factor (Mus musculus), P17679 V205M (P17679 whole entry V205M): as the sequence (P17679 whole entry D218G) above, with V205M, G218D counted along it
Sequence of Erythroid transcription factor (Mus musculus), P17679 G208S (P17679 whole entry G208S): as the sequence (P17679 whole entry D218G) above, with G208S, G218D counted along it

| Substance | effect of a mutation on the interaction |
| --- | --- |
| Erythroid transcription factor (Mus musculus), P17679 D218G | with no effect |
| Erythroid transcription factor (Mus musculus), P17679 R216Q | with no effect |
| Erythroid transcription factor (Mus musculus), P17679 G208S | disrupting interaction strength |
| Erythroid transcription factor (Mus musculus), P17679 V205M | disrupting interaction strength |
